Experimental data from PMC12748766, “Structural basis for human chondroitin sulfate chain polymerization” (Nature Communications, 2025).

Experiments:
Assay in all cases: mass photometry; Refeyn OneMP; purified complexes diluted in 20 mM MES pH 6.5, 150 mM NaCl to around 25 nM
Conditions in all cases: both partners purified
[1] = target: T1, Chondroitin Sulfate Synthase-3 (CHSY3), secreted N-terminally truncated construct aa157-aa882 (human, UniProt Q70JA7 157-882)
T1 construct: CHSY3, human, UniProt Q70JA7, residues 157-882 (membrane-spanning helix removed); Construct in pHR-CMV-TetO2 with an N-terminal chicken RPTP sigma signal peptide, SUMO, 6x His and a 3C site; no cleavage site before the C-terminal Avi tag; source: Freestyle 293-F cells, co-transfected, secreted; purified from the supernatant (HisTrap, 3C protease, second HisTrap); not shown: SUMO, N-terminal, …
T1 sequence (looked up): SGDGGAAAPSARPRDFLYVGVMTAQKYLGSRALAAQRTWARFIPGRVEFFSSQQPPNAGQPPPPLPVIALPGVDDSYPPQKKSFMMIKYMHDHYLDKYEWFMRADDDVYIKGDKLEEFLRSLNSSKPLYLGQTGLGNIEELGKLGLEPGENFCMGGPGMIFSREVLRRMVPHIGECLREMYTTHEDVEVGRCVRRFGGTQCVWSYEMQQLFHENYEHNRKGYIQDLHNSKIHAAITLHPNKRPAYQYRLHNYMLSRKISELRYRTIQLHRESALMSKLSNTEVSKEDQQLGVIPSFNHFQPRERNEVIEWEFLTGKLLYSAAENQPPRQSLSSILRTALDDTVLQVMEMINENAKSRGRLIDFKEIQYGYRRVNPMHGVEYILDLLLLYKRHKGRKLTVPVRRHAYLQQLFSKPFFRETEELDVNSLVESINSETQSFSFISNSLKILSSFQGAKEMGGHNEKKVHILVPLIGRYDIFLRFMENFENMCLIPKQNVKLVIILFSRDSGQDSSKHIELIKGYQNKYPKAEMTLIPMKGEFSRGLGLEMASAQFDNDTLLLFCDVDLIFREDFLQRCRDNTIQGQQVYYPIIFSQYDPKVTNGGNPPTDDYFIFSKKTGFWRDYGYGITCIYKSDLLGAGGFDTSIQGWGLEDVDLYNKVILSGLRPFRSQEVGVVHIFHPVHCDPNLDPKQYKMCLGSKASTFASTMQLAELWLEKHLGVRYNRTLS

[2] = target: T2, CHSY3^D261N/D263N, secreted construct aa157-aa882 (human, UniProt Q70JA7 157-882, D261N | D263N)
T2 construct: CHSY3, human, UniProt Q70JA7, residues 157-882, mutations in the DxD motif of the N-terminal GT domain; source: Freestyle 293-F cells, co-transfected with CHPF, secreted; purified by the same protocol as the wild-type complexes; not shown: SUMO, N-terminal, cleaved; His6, N-terminal, cleaved
T2 sequence (looked up): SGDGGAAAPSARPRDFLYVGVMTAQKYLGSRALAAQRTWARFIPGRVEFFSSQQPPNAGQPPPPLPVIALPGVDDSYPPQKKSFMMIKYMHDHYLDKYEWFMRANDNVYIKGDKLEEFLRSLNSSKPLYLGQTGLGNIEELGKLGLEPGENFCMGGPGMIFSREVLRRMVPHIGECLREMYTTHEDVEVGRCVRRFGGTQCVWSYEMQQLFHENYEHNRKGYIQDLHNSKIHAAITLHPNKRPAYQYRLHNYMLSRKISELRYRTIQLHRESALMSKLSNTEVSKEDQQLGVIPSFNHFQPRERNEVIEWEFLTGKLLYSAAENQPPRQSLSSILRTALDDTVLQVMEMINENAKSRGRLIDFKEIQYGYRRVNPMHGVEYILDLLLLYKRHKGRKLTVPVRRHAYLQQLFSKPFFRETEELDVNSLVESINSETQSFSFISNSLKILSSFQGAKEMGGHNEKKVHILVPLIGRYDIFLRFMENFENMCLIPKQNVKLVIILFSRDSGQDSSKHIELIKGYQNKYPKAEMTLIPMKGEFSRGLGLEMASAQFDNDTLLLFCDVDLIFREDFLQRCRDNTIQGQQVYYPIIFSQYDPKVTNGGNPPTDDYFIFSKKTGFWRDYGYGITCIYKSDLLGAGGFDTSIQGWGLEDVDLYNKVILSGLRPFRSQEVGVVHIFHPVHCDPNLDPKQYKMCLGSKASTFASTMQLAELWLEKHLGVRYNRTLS

[3] = target: T3, CHSY3^H831A, secreted construct aa157-aa882 (human, UniProt Q70JA7 157-882, H831A)
T3 construct: CHSY3, human, UniProt Q70JA7, residues 157-882, mutation in the C-terminal GT domain; source: Freestyle 293-F cells, co-transfected with CHPF, secreted; purified by the same protocol as the wild-type complexes; not shown: SUMO, N-terminal, cleaved; His6, N-terminal, cleaved
T3 sequence (looked up): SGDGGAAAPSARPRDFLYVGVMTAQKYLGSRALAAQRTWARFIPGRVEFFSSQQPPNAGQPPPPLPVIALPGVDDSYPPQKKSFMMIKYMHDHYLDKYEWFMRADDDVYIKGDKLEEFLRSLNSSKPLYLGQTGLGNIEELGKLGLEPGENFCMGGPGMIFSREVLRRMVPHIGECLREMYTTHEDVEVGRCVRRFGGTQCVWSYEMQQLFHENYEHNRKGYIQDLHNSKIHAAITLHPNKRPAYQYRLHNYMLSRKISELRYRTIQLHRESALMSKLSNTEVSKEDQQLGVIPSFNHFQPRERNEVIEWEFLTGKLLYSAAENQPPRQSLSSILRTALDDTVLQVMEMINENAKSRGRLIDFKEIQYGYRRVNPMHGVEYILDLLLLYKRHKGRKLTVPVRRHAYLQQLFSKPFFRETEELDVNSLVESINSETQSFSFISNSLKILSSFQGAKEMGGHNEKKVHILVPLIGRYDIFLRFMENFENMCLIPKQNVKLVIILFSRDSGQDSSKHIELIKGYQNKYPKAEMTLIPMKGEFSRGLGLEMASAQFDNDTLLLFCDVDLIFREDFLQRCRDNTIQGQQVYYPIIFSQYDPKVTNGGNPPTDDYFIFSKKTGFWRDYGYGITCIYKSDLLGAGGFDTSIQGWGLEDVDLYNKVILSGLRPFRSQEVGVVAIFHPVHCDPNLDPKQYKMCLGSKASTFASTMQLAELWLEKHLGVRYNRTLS

- binding result [1]: binds
- binding result [2]: binds
- binding result [3]: binds
B1: Chondroitin Polymerizing Factor (CHPF), secreted N-terminally truncated construct aa81-aa775 (domain or fragment, human, UniProt Q8IZ52 81-775, looked up)
chain: GENWEPRVLPYHPAQPGQAAKKAVRTRYISTELGIRQRLLVAVLTSQTTLPTLGVAVNRTLGHRLERVVFLTGARGRRAPPGMAVVTLGEERPIGHLHLALRHLLEQHGDDFDWFFLVPDTTYTEAHGLARLTGHLSLASAAHLYLGRPQDFIGGEPTPGRYCHGGFGVLLSRMLLQQLRPHLEGCRNDIVSARPDEWLGRCILDATGVGCTGDHEGVHYSHLELSPGEPVQEGDPHFRSALTAHPVRDPVHMYQLHKAFARAELERTYQEIQELQWEIQNTSHLAVDGDQAAAWPVGIPAPSRPASRFEVLRWDYFTEQHAFSCADGSPRCPLRGADRADVADVLGTALEELNRRYHPALRLQKQQLVNGYRRFDPARGMEYTLDLQLEALTPQGGRRPLTRRVQLLRPLSRVEILPVPYVTEASRLTVLLPLAAAERDLAPGFLEAFATAALEPGDAAAALTLLLLYEPRQAQRVAHADVFAPVKAHVAELERRFPGARVPWLSVQTAAPSPLRLMDLLSKKHPLDTLFLLAGPDTVLTPDFLNRCRMHAISGWQAFFPMHFQAFHPAVAPPQGPGPPELGRDTGRFDRQAASEACFYNSDYVAARGRLAAASEQEEELLESLDVYELFLHFSSLHVLRAVEPALLQRYRAQTCSARLSEDLYHRCLQSVLEGLGSRTQLAMLLFEQEQGNST
notes: CHPF, human, UniProt Q8IZ52, residues 81-775 (membrane-spanning helix removed); Construct in pHR-CMV-TetO2 with an N-terminal chicken RPTP sigma signal peptide, SUMO, 6x His and a 3C site; a second 3C site stands before the C-terminal twin streptavidin tag; also called Chondroitin sulfate synthase 2; source: Freestyle 293-F cells, co-transfected, secreted; purified from the supernatant (HisTrap, …)
